# Test results: PMC9103930
# Legend:
# [1] = target: Deinococcus grandis Dps, wild type (Deinococcus grandis); assay: SAXS; solution SAXS (batch and SEC-SAXS), 50 mM MOPS pH 7.0 with 50-480 mM NaCl (WT) or 50 and 230 mM NaCl (∆N); ab initio models (GASBOR, DAMMIN) with P23 symmetry set
# [2] = target: Deinococcus grandis Dps tailless variant ∆N (lacking the first 46 residues) (Deinococcus grandis); assay: as above
# [3] = target: Deinococcus grandis Dps tailless variant ∆N (lacking the first 46 residues) (Deinococcus grandis); assay: SEC + other: dynamic light scattering; Superdex 200 10/300 GL calibrated with protein standards, and DLS at 25 °C; 200 mM MOPS pH 7.0, 200 mM NaCl; WT also in 50 mM MOPS pH 7.0 with 50-480 mM NaCl; apparent molecular mass and hydrodynamic diameter of the oligomer
Substance,stoichiometry N [1],stoichiometry N [2],stoichiometry N [3]
"Deinococcus grandis Dps, wild type (from UniProt A0A100HLL5 1-214) (natural protein)",12,,
Deinococcus grandis Dps tailless variant ∆N (lacking the first 46 residues) (from UniProt A0A100HLL5 47-205) (domain or fragment),,12,12
